Experimental findings from article PMC483052 (Journal of Neuroinflammation, 2004) are described below.

This data set concerns the molecule itself. Description: western blot of cell lysates. In general terms: Immunoblotting shows a protein as a band on a membrane.

B1: serine racemase (enzyme, rat (endogenous in primary microglia), UniProt Q76EQ0 1-333, looked up)
chain: MCAQYCISFADVEKAHLNIQDSVHLTPVLTSSILNQIAGRNLFFKCELFQKTGSFKIRGALNAIRGLIPDTLEGKPKAVVTHSSGNHGQALTYAAKLEGIPAYIVVPQTAPNCKKLAIQAYGASIVYSEPSDESRENVAQRIIQETEGILVHPNQEPAVIAGQGTIALEVLNQVPLVDALVVPVGGGGMVAGIAITIKTLKPSVKVYAAEPSNADDCYQSKLKGELTPNLHPPETIADGVKSSIGLNTWPIIRDLVDDVFTVTEDEIKYATQLVWERMKLLIEPTAGVGLAAVLSQHFQTVSPEVKNICIVLSGGNVDLTSLSWVKQAERPAP
By stoichiometry N is commonly meant a count of units in the complex or per binding partner. With B1, the “stoichiometry N” value was 2.
